We go through one molecule from patent publication US20110281938A1 (BAXTER INTERNATIONAL, published 2011).

The assay deals with T1, Full-length TFPI (recombinant human tissue factor pathway inhibitor, American Diagnostica, E. coli expressed) (human, UniProt P10646 29-304).
T1 construct: also called recombinant TFPI; human TFPI
T1 sequence: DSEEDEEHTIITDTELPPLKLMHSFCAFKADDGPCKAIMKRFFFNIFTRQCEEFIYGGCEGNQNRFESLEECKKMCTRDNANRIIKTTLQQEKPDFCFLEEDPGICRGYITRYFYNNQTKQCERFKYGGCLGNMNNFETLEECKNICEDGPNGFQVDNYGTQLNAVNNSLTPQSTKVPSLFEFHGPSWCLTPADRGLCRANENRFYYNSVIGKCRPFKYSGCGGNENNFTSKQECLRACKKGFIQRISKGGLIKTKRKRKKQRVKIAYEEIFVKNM
The assay is described as follows: dot-blot (nitrocellulose filtration) binding competition: 10 nM TFPI, trace radiolabeled aptamer ARC17480 as the displaced ligand, FXa varied 2000-0.10 nM. As for the experimental part:
For these experiments, human TFPI at a final concentration of 10 nM (American Diagnostica, Stamford, Conn., catalog #4900PC) was incubated with trace amounts of radiolabeled ARC17480 and different concentrations of human FXa (Haematologic Technologies, Essex Junction, Vt. catalog #HCXA-0060) or ARC19499 (2000 nM-0.10 nM). A control was also carried out in the absence of TFPI in which trace amounts of radiolabeled ARC17480 was incubated with different concentrations of FXa (2000 nM-0.10 nM). The percentage of radiolabeled ARC17480 bound was plotted as a function of competitor concentration and fit to the equation y=(max/(1+x/IC₅₀))+int, where y=the percentage of radiolabeled ARC17480 bound, x=the concentration of competitor, max=the maximum radiolabeled ARC17480 bound, and int=the y-intercept, to generate an IC₅₀ value for binding-competition. […] FXa partially competes with ARC17480 for binding to TFPI, as evidenced by a plateau in the competition-binding curve at concentrations above ˜75 nM. In contrast, ARC19499 completely competes with radiolabeled ARC17480 for binding to TFPI.

B1: human FXa (Haematologic Technologies, catalog #HCXA-0060) (enzyme)
chain 1: ANSFLEEMKKGHLERECMEETCSYEEAREVFEDSDKTNEFWNKYKDGDQCETSPCQNQGKCKDGLGEYTCTCLEGFEGKNCELFTRKLCSLDNGDCDQFCHEEQNSVVCSCARGYTLADNGKACIPTGPYPCGKQTLER
chain 2: IVGGQECKDGECPWQALLINEENEGFCGGTILSEFYILTAAHCLYQAKRFKVRVGDRNTEQEEGGEAVHEVEVVIKHNRFTKETYDFDIAVLRLKTPITFRMNVAPACLPERDWAESTLMTQKTGIVSGFGRTHEKGRQSTRLKMLEVPYVDRNSCKLSSSFIITQNMFCAGYDTKQEDACQGDSGGPHVTRFKDTYFVTGIVSWGEGCARKGKYGIYTKVTAFLKWIDRSMKTRGLPKAKSHAPEVITSSPLK
notes: FXa is a two-chain protease; also called Factor Xa
For the molecule B1, the “IC50 (read off the curve)” value was approximately 7 nM.
